# Assay results from US20260015399A1 (Boehringer Ingelheim, published 2026).
# *1 amine or outer side, *2 acyl side, *3 side chain or, on linkers, in order; H or OH if unused. Side-chain parts run from the residue outwards. The star is where a group is joined. C18 diacid = O=C(O)CCCCCCCCCCCCCCCCC(=O)*; γGlu = O=C(O)[C@H](CCC(=O)[*:2])N[*:1]; Isovaleryl = CC(C)CC(=O)*; Ahx = NCCCCCC(=O)O
# T1: human NPY2 receptor (human, UniProt P49146 1-381)
# T1 construct: whole, on cells; also called hNPY2-R; hNPY2R
# T1 sequence (looked up): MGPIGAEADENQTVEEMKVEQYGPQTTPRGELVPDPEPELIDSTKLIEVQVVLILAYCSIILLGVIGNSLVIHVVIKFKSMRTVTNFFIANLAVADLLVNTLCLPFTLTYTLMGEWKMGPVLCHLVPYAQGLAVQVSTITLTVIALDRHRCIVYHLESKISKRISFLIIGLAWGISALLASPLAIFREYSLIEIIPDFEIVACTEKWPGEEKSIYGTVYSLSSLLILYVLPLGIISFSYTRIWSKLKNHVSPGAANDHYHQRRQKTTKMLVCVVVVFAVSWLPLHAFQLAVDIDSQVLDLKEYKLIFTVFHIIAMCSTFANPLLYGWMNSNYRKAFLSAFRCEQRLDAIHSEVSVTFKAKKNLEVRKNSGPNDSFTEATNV
# Target: T1, human NPY2 receptor
# Test: RLB: displacement of 125I-PYY(1-36) from hNPY2R membranes
row,Binder,Ki
1,Isovaleryl-APAK([Ahx-γGlu-C18 diacid])PEEDAEPEELQRYYVSLRHYYNWLTRQRY-NH2 (SMILES CC(C)CC(=O)N[C@@H](C)C(=O)N1CCC[C@H]1C(=O)N[C@@H](C)C(=O)N[C@@H](CCCCNC(=O)CCCCCNC(=O)CC[C@H](NC(=O)CCCCCCCCCCCCCCCCC(=O)O)C(=O)O)C(=O)N1CCC[C@H]1C(=O)N[C@@H](CCC(=O)O)C(=O)N[C@@H](CCC(=O)O)C(=O)N[C@@H](CC(=O)O)C(=O)N[C@@H](C)C(=O)N[C@@H](CCC(=O)O)C(=O)N1CCC[C@H]1C(=O)N[C@@H](CCC(=O)O)C(=O)N[C@@H](CCC(=O)O)C(=O)N[C@@H](CC(C)C)C(=O)N[C@@H](CCC(N)=O)C(=O)N[C@@H](CCCNC(=N)N)C(=O)N[C@@H](Cc1ccc(O)cc1)C(=O)N[C@@H](Cc1ccc(O)cc1)C(=O)N[C@H](C(=O)N[C@@H](CO)C(=O)N[C@@H](CC(C)C)C(=O)N[C@@H](CCCNC(=N)N)C(=O)N[C@@H](Cc1c[nH]cn1)C(=O)N[C@@H](Cc1ccc(O)cc1)C(=O)N[C@@H](Cc1ccc(O)cc1)C(=O)N[C@@H](CC(N)=O)C(=O)N[C@@H](Cc1c[nH]c2ccccc12)C(=O)N[C@@H](CC(C)C)C(=O)N[C@H](C(=O)N[C@@H](CCCNC(=N)N)C(=O)N[C@@H](CCC(N)=O)C(=O)N[C@@H](CCCNC(=N)N)C(=O)N[C@@H](Cc1ccc(O)cc1)C(N)=O)[C@@H](C)O)C(C)C) [Compound 133],4.68 nM
2,Isovaleryl-APEK([Ahx-γGlu-C18 diacid])PEEDAEPEELQEYYVSLRHYYNWLTRQRY-NH2 (SMILES CC(C)CC(=O)N[C@@H](C)C(=O)N1CCC[C@H]1C(=O)N[C@@H](CCC(=O)O)C(=O)N[C@@H](CCCCNC(=O)CCCCCNC(=O)CC[C@H](NC(=O)CCCCCCCCCCCCCCCCC(=O)O)C(=O)O)C(=O)N1CCC[C@H]1C(=O)N[C@@H](CCC(=O)O)C(=O)N[C@@H](CCC(=O)O)C(=O)N[C@@H](CC(=O)O)C(=O)N[C@@H](C)C(=O)N[C@@H](CCC(=O)O)C(=O)N1CCC[C@H]1C(=O)N[C@@H](CCC(=O)O)C(=O)N[C@@H](CCC(=O)O)C(=O)N[C@@H](CC(C)C)C(=O)N[C@@H](CCC(N)=O)C(=O)N[C@@H](CCC(=O)O)C(=O)N[C@@H](Cc1ccc(O)cc1)C(=O)N[C@@H](Cc1ccc(O)cc1)C(=O)N[C@H](C(=O)N[C@@H](CO)C(=O)N[C@@H](CC(C)C)C(=O)N[C@@H](CCCNC(=N)N)C(=O)N[C@@H](Cc1c[nH]cn1)C(=O)N[C@@H](Cc1ccc(O)cc1)C(=O)N[C@@H](Cc1ccc(O)cc1)C(=O)N[C@@H](CC(N)=O)C(=O)N[C@@H](Cc1c[nH]c2ccccc12)C(=O)N[C@@H](CC(C)C)C(=O)N[C@H](C(=O)N[C@@H](CCCNC(=N)N)C(=O)N[C@@H](CCC(N)=O)C(=O)N[C@@H](CCCNC(=N)N)C(=O)N[C@@H](Cc1ccc(O)cc1)C(N)=O)[C@@H](C)O)C(C)C) [Compound 138],12.5 nM
3,Isovaleryl-APEK([Ahx-γGlu-C18 diacid])PEEDATPEELQRYYVSLRHYYNWLLRQRY-NH2 (SMILES CC(C)CC(=O)N[C@@H](C)C(=O)N1CCC[C@H]1C(=O)N[C@@H](CCC(=O)O)C(=O)N[C@@H](CCCCNC(=O)CCCCCNC(=O)CC[C@H](NC(=O)CCCCCCCCCCCCCCCCC(=O)O)C(=O)O)C(=O)N1CCC[C@H]1C(=O)N[C@@H](CCC(=O)O)C(=O)N[C@@H](CCC(=O)O)C(=O)N[C@@H](CC(=O)O)C(=O)N[C@@H](C)C(=O)N[C@H](C(=O)N1CCC[C@H]1C(=O)N[C@@H](CCC(=O)O)C(=O)N[C@@H](CCC(=O)O)C(=O)N[C@@H](CC(C)C)C(=O)N[C@@H](CCC(N)=O)C(=O)N[C@@H](CCCNC(=N)N)C(=O)N[C@@H](Cc1ccc(O)cc1)C(=O)N[C@@H](Cc1ccc(O)cc1)C(=O)N[C@H](C(=O)N[C@@H](CO)C(=O)N[C@@H](CC(C)C)C(=O)N[C@@H](CCCNC(=N)N)C(=O)N[C@@H](Cc1c[nH]cn1)C(=O)N[C@@H](Cc1ccc(O)cc1)C(=O)N[C@@H](Cc1ccc(O)cc1)C(=O)N[C@@H](CC(N)=O)C(=O)N[C@@H](Cc1c[nH]c2ccccc12)C(=O)N[C@@H](CC(C)C)C(=O)N[C@@H](CC(C)C)C(=O)N[C@@H](CCCNC(=N)N)C(=O)N[C@@H](CCC(N)=O)C(=O)N[C@@H](CCCNC(=N)N)C(=O)N[C@@H](Cc1ccc(O)cc1)C(N)=O)C(C)C)[C@@H](C)O) [Compound 137],49.6 nM

# Now those with a lower Ki, led by results:
row,Ki,Binder
1,3.83 nM,Isovaleryl-APEK([Ahx-γGlu-C18 diacid])PEAAAEPEEIQRYYVALRHYYNWLTRQRY-NH2 (SMILES CC[C@H](C)[C@H](NC(=O)[C@H](CCC(=O)O)NC(=O)[C@H](CCC(=O)O)NC(=O)[C@@H]1CCCN1C(=O)[C@H](CCC(=O)O)NC(=O)[C@H](C)NC(=O)[C@H](C)NC(=O)[C@H](C)NC(=O)[C@H](CCC(=O)O)NC(=O)[C@@H]1CCCN1C(=O)[C@H](CCCCNC(=O)CCCCCNC(=O)CC[C@H](NC(=O)CCCCCCCCCCCCCCCCC(=O)O)C(=O)O)NC(=O)[C@H](CCC(=O)O)NC(=O)[C@@H]1CCCN1C(=O)[C@H](C)NC(=O)CC(C)C)C(=O)N[C@@H](CCC(N)=O)C(=O)N[C@@H](CCCNC(=N)N)C(=O)N[C@@H](Cc1ccc(O)cc1)C(=O)N[C@@H](Cc1ccc(O)cc1)C(=O)N[C@H](C(=O)N[C@@H](C)C(=O)N[C@@H](CC(C)C)C(=O)N[C@@H](CCCNC(=N)N)C(=O)N[C@@H](Cc1c[nH]cn1)C(=O)N[C@@H](Cc1ccc(O)cc1)C(=O)N[C@@H](Cc1ccc(O)cc1)C(=O)N[C@@H](CC(N)=O)C(=O)N[C@@H](Cc1c[nH]c2ccccc12)C(=O)N[C@@H](CC(C)C)C(=O)N[C@H](C(=O)N[C@@H](CCCNC(=N)N)C(=O)N[C@@H](CCC(N)=O)C(=O)N[C@@H](CCCNC(=N)N)C(=O)N[C@@H](Cc1ccc(O)cc1)C(N)=O)[C@@H](C)O)C(C)C) [Compound 135]
2,2.8 nM,Isovaleryl-APEK([Ahx-γGlu-C18 diacid])PEEDATPEEQQRYYVSLRHYYNWLTRQRY-NH2 (SMILES CC(C)CC(=O)N[C@@H](C)C(=O)N1CCC[C@H]1C(=O)N[C@@H](CCC(=O)O)C(=O)N[C@@H](CCCCNC(=O)CCCCCNC(=O)CC[C@H](NC(=O)CCCCCCCCCCCCCCCCC(=O)O)C(=O)O)C(=O)N1CCC[C@H]1C(=O)N[C@@H](CCC(=O)O)C(=O)N[C@@H](CCC(=O)O)C(=O)N[C@@H](CC(=O)O)C(=O)N[C@@H](C)C(=O)N[C@H](C(=O)N1CCC[C@H]1C(=O)N[C@@H](CCC(=O)O)C(=O)N[C@@H](CCC(=O)O)C(=O)N[C@@H](CCC(N)=O)C(=O)N[C@@H](CCC(N)=O)C(=O)N[C@@H](CCCNC(=N)N)C(=O)N[C@@H](Cc1ccc(O)cc1)C(=O)N[C@@H](Cc1ccc(O)cc1)C(=O)N[C@H](C(=O)N[C@@H](CO)C(=O)N[C@@H](CC(C)C)C(=O)N[C@@H](CCCNC(=N)N)C(=O)N[C@@H](Cc1c[nH]cn1)C(=O)N[C@@H](Cc1ccc(O)cc1)C(=O)N[C@@H](Cc1ccc(O)cc1)C(=O)N[C@@H](CC(N)=O)C(=O)N[C@@H](Cc1c[nH]c2ccccc12)C(=O)N[C@@H](CC(C)C)C(=O)N[C@H](C(=O)N[C@@H](CCCNC(=N)N)C(=O)N[C@@H](CCC(N)=O)C(=O)N[C@@H](CCCNC(=N)N)C(=O)N[C@@H](Cc1ccc(O)cc1)C(N)=O)[C@@H](C)O)C(C)C)[C@@H](C)O) [Compound 134]
3,3.6 nM,Isovaleryl-APEK([Ahx-γGlu-C18 diacid])PEEEASPAELQRYYVSLRHYYNWLTRQRY-NH2 (SMILES CC(C)CC(=O)N[C@@H](C)C(=O)N1CCC[C@H]1C(=O)N[C@@H](CCC(=O)O)C(=O)N[C@@H](CCCCNC(=O)CCCCCNC(=O)CC[C@H](NC(=O)CCCCCCCCCCCCCCCCC(=O)O)C(=O)O)C(=O)N1CCC[C@H]1C(=O)N[C@@H](CCC(=O)O)C(=O)N[C@@H](CCC(=O)O)C(=O)N[C@@H](CCC(=O)O)C(=O)N[C@@H](C)C(=O)N[C@@H](CO)C(=O)N1CCC[C@H]1C(=O)N[C@@H](C)C(=O)N[C@@H](CCC(=O)O)C(=O)N[C@@H](CC(C)C)C(=O)N[C@@H](CCC(N)=O)C(=O)N[C@@H](CCCNC(=N)N)C(=O)N[C@@H](Cc1ccc(O)cc1)C(=O)N[C@@H](Cc1ccc(O)cc1)C(=O)N[C@H](C(=O)N[C@@H](CO)C(=O)N[C@@H](CC(C)C)C(=O)N[C@@H](CCCNC(=N)N)C(=O)N[C@@H](Cc1c[nH]cn1)C(=O)N[C@@H](Cc1ccc(O)cc1)C(=O)N[C@@H](Cc1ccc(O)cc1)C(=O)N[C@@H](CC(N)=O)C(=O)N[C@@H](Cc1c[nH]c2ccccc12)C(=O)N[C@@H](CC(C)C)C(=O)N[C@H](C(=O)N[C@@H](CCCNC(=N)N)C(=O)N[C@@H](CCC(N)=O)C(=O)N[C@@H](CCCNC(=N)N)C(=O)N[C@@H](Cc1ccc(O)cc1)C(N)=O)[C@@H](C)O)C(C)C) [Compound 139]
